# Measurements from US7927849B2, “Laccase enzyme and use thereof” (AB Enzymes OY, priority 2004, dated 2011).
# Legend:
# [1] = Denim bleaching, effect of enzyme dosage (Wascator); conditions: 60° C., pH 6
# Procedure: Lee Cooper Jeans previously washed with ECOSTONE® cellulases (Example 7) were treated with a TaLcc1 laccase product from Trichoderma strain RF5598 and DeniLite Base from Novozymes using different laccase dosages. The laccase treatments were performed with Electrolux's Wascator FOM 71 CLS washer extractor under optimal conditions for each enzyme, shown in Table 13. Methyl syringate (Example 7) was used as a mediator. Laccase was inactivated after draining by raising the pH above 11 by NaOH (10 min, 60° C.) and rinsing 3 times. The fabrics were dried in a tumbler.
# The bleaching effect was evaluated by measuring the colour after laccase treatment as reflectance values (as in Example 7) and comparing the values to previously measured values after cellulase treatment.
# [2] = Redox potential, Pt-AgCl/KCl microelectrode; type: physicochemical; conditions: pH 5.0
# Procedure: (§1) The purified recombinant Thielavia arenaria TaLcc1 was characterized in terms of pH optimum, thermal stability, and pI as described in Example 2. The molecular weight was determined by MALDI-TOF mass spectrometry on a Ultraflex™ time-of-flight instrument (BrukerDaltonics, Germany) as previously described (Palonen et al., 2003). The redox potential of TaLcc1 was also determined with a combined Pt-AgCl/KCl microelectrode at pH 5.0 according to Sigoillot et al (2004)
# Decolorization of dyes [3] = assay: Decolorization of dyes; set-up: key: −: no visually detectable change; +: visually detectable fading of the colour; ++: considerable fading of the colour; +++: complete/almost complete decolorization; conditions: dye 12 mg/100 ml, 50° C., pH 6
# Procedure: (§2) The TaLcc1 laccase preparation from strain RF5597 was tested for its ability to decolourize different dyes in the presence or absence of the methyl syringate mediator (Example 7). The experiments were carried out in 250 ml shake flasks containing 100 ml of dye dissolved in citrate phosphate buffer pH 6. Dye concentration 12 mg/100 ml was used. Enzyme was dosed 200 nkat (or 20 nkat) per 100 ml and the mediator 10 (or 1) mg per 100 ml. The shake flasks were incubated at 50° C. for 30, 90 and 150 minutes. Samples of 3.5 ml were taken in test tubes for visual evaluation.
# Specific activity on DMP = type: biochemical; conditions: 25 mM MES buffer, pH 5.5
# Procedure: (§3) Specific activities of the purified Thielavia laccase were determined towards different laccase substrates.
# [4] = Specific activity on syringaldazine; type: biochemical; conditions: 25 mM MES buffer, pH 5.5
# Procedure: as §3
# Decolorization of dyes [5] = assay: Decolorization of dyes; set-up: key to Decolorization of Indigocarmine, Time 30 min / Decolorization of Indigocarmine, Time 90 min: −: no visually detectable change; +: visually detectable fading of the colour; ++: considerable fading of the colour; +++: complete/almost complete decolorization; conditions: 50° C., pH 6; for Decolorization of Indigocarmine, Time 30 min / Decolorization of Indigocarmine, Time 90 min: dye 12 mg/100 ml
# Procedure: as §2
# [6] = Isoelectric focusing (pI); type: physicochemical; conditions: pH range 3-9, ABTS staining
# Procedure: Molecular weight of the Thielavia arenaria laccase (wt TaLcc1) was determined on SDS-PAGE according to Laemmli (1970). The gels used in the SDS-PAGE analysis were ready-made 12% Tris HCl gels (BioRad). Protein bands were visualized by staining with Coomassie Brilliant Blue (R 350; Pharmacia) and compared with molecular weight markers (Prestained Protein Marker Broad Range #7708S; New England BioLabs, Beverly, Mass.). The molecular weight of the Thielavia areanaria laccase was approximately 80 kDa. The isoelectric point of the laccase was determined with isoelectric focusing within the pH range of 3-9 (Pharmalyte IEF, Pharmacia) on a LKB 2117 Multiphor II Electrophoresis System (LKB Pharmacia, Bromma, Sweden) according to the manufacturer's instructions.
# as §1
# [7] = Stain removal with laccases, tea; conditions: 60 min, pH 6
# Procedure: The TaLcc1 (RF5598) and Denilite II Base laccase preparations were tested for their ability to remove stains. The following artificially soiled test cloths were used: grass soiling (Art. 164, EMPA Testmaterialen, Germany), tea soiling (Art. 167, EMPA Testmaterialen, Germany). The fabric was cut in 5.8×5.8 cm swatches. Laccase treatments were performed in LP-2 Launder Ometer as follows. About 5 g of soiled fabrics were loaded into 1.2 liter containers containing 150 ml Mc Ilvaine's citrate phosphate buffer pH 6 and the containers were temperated. Enzymes with or without the mediator (methyl syringate, DeniLite II Assist, Novozymes) were dosed as laccase activity units (Example 7). Enzyme dosage was 200 nkat/g and mediator dosage 10 mg/g of the weight of fabric, except at 40° C. also dosages of 20 nkat/g and 2 mg/g were used. The Launder Ometer was run at 40, 50 or 60° C. and pH 6 for 60 min. After that the swatches were carefully rinsed under running water and in shake flasks containing warm water and dried in the air.
# The stain removal effect was evaluated by measuring the colour as reflectance values using L*a*b* color space coordinates (Example 7). The colour of the swatches was measured before and after the laccase treatment.
# [8] = 20 nkat/g, mediator 1 mg/g, 30 min
# [9] = 20 nkat/g, mediator 1 mg/g, 60 min
# [10] = 100 nkat/g, mediator 5 mg/g, 30 min
# [11] = 100 nkat/g, mediator 5 mg/g, 60 min
# [12] = enzyme 20 nkat/100 ml, mediator 0 mg/100 ml
# [13] = enzyme 20 nkat/100 ml, mediator 1 mg/100 ml
# [14] = enzyme 200 nkat/100 ml, mediator 0 mg/100 ml
# [15] = enzyme 200 nkat/100 ml, mediator 10 mg/100 ml
# [16] = 20 nkat/g, mediator 2 mg/g, 40° C.
# [17] = 200 nkat/g, mediator 0 mg/g, 40° C.
# [18] = 200 nkat/g, mediator 0 mg/g, 60° C.
# [19] = 200 nkat/g, mediator 10 mg/g, 40° C.
# [20] = 200 nkat/g, mediator 10 mg/g, 50° C.
# [21] = 200 nkat/g, mediator 10 mg/g, 60° C.
molecule,measurement,setting,value
"TaLcc1: Recombinant Thielavia arenaria ALKO4197 laccase 1 (SEQ ID NO: 12) produced in Trichoderma reesei strains RF5597/RF5598 (protein, Thielavia arenaria ALKO4197; (1)..(617) Deduced amino acid sequence of Thielavia arenaria ALKO4197 laccase 1 (Ta Lcc1)) MKSWAAAVALMVGILSPHAAAAPPANPVQRDMLQVLEARQSGPTCNTPSNRACWTNGFDINTDYEVSTPNTGRTVAYQLTLTEKENWIGPDGVLKNVVMLVNDKIIGPTIRANWGDNIEVTVINNLKTNGTSMHWHGLRQLGNVFNDGANGVTECPIPPKGGRKTYKFRATQYGTSWYHSHFSAQYGNGVVGTIQIDGPASLPYDIDLGVFPLMDYYYRSADELVHFTQSNGAPPSDNVLFNGTARHPETGAGQWYNVTLTPGKRHRLRIINTSTDNHFQVSLVGHNMTVIATDMVPVNAFTVSSLFLAVGQRYDVTIDANSPVGNYWFNVTFGDGLCGSSNNKFPAAIFRYQGAPATLPTDQGLPVPNHMCLDNLNLTPVVTRSAPVNNFVKRPSNTLGVTLDIGGTPLFVWKVNGSAINVDWGKPILDYVMSGNTSYPVSDNIVQVDAVDQWTYWLIENDPTNPIVSLPHPMHLHGHDFLVLGRSPDELPSAGVRHIFDPAKDLPRLKGNNPVRRDVTMLPAGGWLLLAFKTDNPGAWLFHCHIAWHVSGGLSVDFLERPNDLRTQLNSNAKRADRDDFNRVCREWNAYWPTNPFPKIDSGLRHRFVEESEWMVR",Increase of L*,[1]; [8],12.24
same,L* after laccase treatment,[1]; [8],40.61
same,b* after laccase treatment,[1]; [8],−16.16
same,Increase of L*,[1]; [9],15.09
same,L* after laccase treatment,[1]; [9],42.72
same,b* after laccase treatment,[1]; [9],−15.61
same,Increase of L*,[1]; [10],21.88
same,L* after laccase treatment,[1]; [10],49.84
same,b* after laccase treatment,[1]; [10],−13.75
same,Increase of L*,[1]; [11],25.68
same,L* after laccase treatment,[1]; [11],53.46
same,b* after laccase treatment,[1]; [11],−11.64
same,E^0,[2],560 mV
same,"Decolorization of Remazol Brilliant Blue, Time 30 min",Decolorization of dyes [3]; [12],−
same,"Decolorization of Remazol Brilliant Blue, Time 90 min",Decolorization of dyes [3]; [12],−
same,"Decolorization of Remazol Brilliant Blue, Time 30 min",Decolorization of dyes [3]; [13],−
same,"Decolorization of Remazol Brilliant Blue, Time 90 min",Decolorization of dyes [3]; [13],−
same,"Decolorization of Cibacron Brilliant Red 3B-P, Time 30 min",Decolorization of dyes [3]; [14],−
same,"Decolorization of Cibacron Brilliant Red 3B-P, Time 90 min",Decolorization of dyes [3]; [14],−
same,"Decolorization of Pontamine Bast Orange GRN, Time 30 min",Decolorization of dyes [3]; [14],−
same,"Decolorization of Pontamine Bast Orange GRN, Time 90 min",Decolorization of dyes [3]; [14],−
same,"Decolorization of Remazol Brilliant Blue, Time 30 min",Decolorization of dyes [3]; [14],−
same,"Decolorization of Remazol Brilliant Blue, Time 90 min",Decolorization of dyes [3]; [14],−
same,"Decolorization of Cibacron Brilliant Red 3B-P, Time 30 min",Decolorization of dyes [3]; [15],+++
same,"Decolorization of Cibacron Brilliant Red 3B-P, Time 90 min",Decolorization of dyes [3]; [15],+++
same,"Decolorization of Pontamine Bast Orange GRN, Time 30 min",Decolorization of dyes [3]; [15],+
same,"Decolorization of Pontamine Bast Orange GRN, Time 90 min",Decolorization of dyes [3]; [15],+
same,"Decolorization of Remazol Brilliant Blue, Time 30 min",Decolorization of dyes [3]; [15],++
same,"Decolorization of Remazol Brilliant Blue, Time 90 min",Decolorization of dyes [3]; [15],++
same,Specific activity on DMP,Specific activity on DMP,285 nkat/mg
same,Specific activity on syringaldazine,[4],340 nkat/mg
same,"Decolorization of Indigocarmine, Time 30 min",Decolorization of dyes [5]; [13],+
same,"Decolorization of Indigocarmine, Time 90 min",Decolorization of dyes [5]; [13],+++
same,"Decolorization of Indigocarmine, Time 30 min",Decolorization of dyes [5]; [14],−
same,"Decolorization of Indigocarmine, Time 90 min",Decolorization of dyes [5]; [14],−
same,"Decolorization of Indigocarmine, Time 30 min",Decolorization of dyes [5]; [15],+++
same,"Decolorization of Indigocarmine, Time 90 min",Decolorization of dyes [5]; [15],+++
same,time until blue colour of Indigocarmine had turned to light yellow,Decolorization of dyes [5]; in the presence of the mediator,< 30 min
same,pI,[6],5.5-6.9
same,Tea L*,[7]; [16],77.17
same,Tea a*,[7]; [16],4.65
same,Tea b*,[7]; [16],24.40
same,Tea L*,[7]; [17],75.99
same,Tea a*,[7]; [17],5.59
same,Tea b*,[7]; [17],23.54
same,Tea L*,[7]; [18],76.98
same,Tea a*,[7]; [18],4.98
same,Tea b*,[7]; [18],21.20
same,Tea L*,[7]; [19],78.77
same,Tea a*,[7]; [19],3.93
same,Tea b*,[7]; [19],24.97
same,Tea L*,[7]; [20],79.52
same,Tea a*,[7]; [20],3.45
same,Tea b*,[7]; [20],23.74
same,Tea L*,[7]; [21],81.69
same,Tea a*,[7]; [21],2.91
same,Tea b*,[7]; [21],22.29
